Measured values as given in publication PMC7661550, “A ‘Split-Gene’ Transketolase From the Hyper-Thermophilic Bacterium Carboxydothermus hydrogenoformans: Structure and Biochemical Characterization” (Frontiers in Microbiology, 2020).

B1: ChTK-F (Carboxydothermus hydrogenoformans Z-2901) (protein)
chain 1: MQDEILNLKLIANQLRQHVVKMVGEANSGHPGGSLSAADILAVLFFKEMRIDPANPKWQDRDRFVLSKGHASPVLYAALAERGFFPKEWLSQFRKINSPLQGHPDMKKVPGVEMSTGSLGQGFSTAVGMALGLKLDRSPARVYVLLGDGEIQEGIVWEAAMAAAHYKLNNLTAILDYNGLQIDGPVQEVMNPEPVADKWRSFGFKVITVDGHNIPEIINAIDAARLHLEGPTIIIAKTVKGKGVSFMENRVEWHGSAPKPEQVAEALSELQVGREKLWEE
chain 2: MGGIATREAYGKALVELGQENPKIVVLDADLSKSTKTSDFAKAFPERFFNMGIAEQNLMGVAAGLSTVGKIPFASTFAVFAAGRAFEIIRNSICYPKLNVKIAATHAGLTVGEDGASHQAIEDLALMRVLPNMQVFVPADAAQTRAIVKKAAEIEGPVYIRLGRSGVPEVFSPDIRFEPGRGTVLKEGKDVTIVALGIMTAKALEAAKMLEAEGIAARVVDMASLKPIDRELLVESARLTGAVVTAEEHSVIGGLGSAVAEVLSEEYPIPVVKVGVNDVFGESGTPQALLEKYGLTARDVVAAVQKALTLKR
notes: two split-gene subunits (alpha ChTK-N, PP domain)
B2: ChTK-N, N-terminal 'split-gene' transketolase polypeptide (PP domain) of Carboxydothermus hydrogenoformans (natural protein, Carboxydothermus hydrogenoformans Z-2901)
chain: B1 chain 1
notes: forms the PP domain; calculated mass of the His-tagged protein 31.0 kDa; chain A of PDB 6YAK; The gene was cloned into the LIC site of pLATE51; By gel filtration the free protein elutes as a dimer; two copies stand in the α2β2 heterotetramer ChTK-F; also called α subunit of ChTK-F (α2β2); source: E. coli BL21 DE3*, purified (heat treatment at 50°C, HisTrap/Ni-NTA, Superdex 200 gel filtration)
B3: ChTK-C, C-terminal 'split-gene' transketolase polypeptide (Pyr and C-terminal domains) of Carboxydothermus hydrogenoformans (natural protein, Carboxydothermus hydrogenoformans Z-2901)
chain: B1 chain 2
notes: Pyr domain residues 1-162 and C-terminal domain residues 164-312; calculated mass of the His-tagged protein 33.2 kDa; chain D of PDB 6YAK, all chains of PDB 6YAJ; The gene was cloned into the LIC site of pLATE51; By gel filtration the free protein elutes as a tetramer; two copies stand in the α2β2 heterotetramer ChTK-F; also called β subunit of ChTK-F (α2β2); ChTK β4; source: E. coli BL21 DE3*, …

Experiments:
purified protein = substrate: O=CCO; test: purified protein; format: biochemical, Carboxydothermus hydrogenoformans; conditions: hydroxypyruvate 100 mM as ketol donor, TPP, CaCl2, 10 mM HEPES pH 7.2, 0.1 M NaCl, room temperature
[1] = target: the molecule itself; test: SEC; each protein alone on a calibrated Superdex 200 HiLoad 16/60 column, 10 mM HEPES, 0.1 M NaCl, pH 7.2; apparent molecular mass
[2] = target: the molecule itself; test: crystal structure; reconstituted ChTK-F α2β2 with TPP and Ca2+, 2.1 M DL-malic acid pH 7.0, space group I222, 1.4 Å (PDB 6YAK); also a PEG 1500 crystal form at 2.1 Å

Protein	Km (purified protein) [mM]	stoichiometry N [1]	stoichiometry N [2]
B1	41 ± 4		
B2		2	
B3		4	2
